Assay results reported in article PMC7954794, “Protein context shapes the specificity of SH3 domain-mediated interactions in vivo” (Nature Communications, 2021).

What was measured:
[1] = system: Abp1 (1xFLAG); experiment: Western blot expression level of Abp1 SH3-swapped baits (Fig. S2A-B); type: cell-based, Saccharomyces cerevisiae; parameters: Flag (2 bands): unit not given here; settings: sheet FigS2A-B; for Ratio Swap/WT Flag: Flag signal relative to Abp1 WT (Abp1-1 to Abp1-4 = 1); for Flag (2 bands): Western blot Flag signal (2 bands), Abp1 WT, SH3-deleted or SH3-swapped
Description: Precultures of yeast cells expressing baits fused with the DHFR F[1,2]-FLAG were grown overnight at 30 °C with agitation in synthetic complete medium. The next day, cells were expanded in synthetic complete medium to reach their exponential phase (OD600 of around 1.0), pelleted, and frozen at −80 °C. The equivalent of fifty OD600 of cells was resuspended in ice-cold yeast lysis buffer (10 mM Tris-HCl pH 7.4, 150 mM NaCl, 0.5 mM EDTA (Millipore Sigma), 1% Triton X-100 (Millipore Sigma), and one cOmplete Mini Protease Inhibitor Cocktail (Millipore Sigma) per 10 mL) with […] glass beads (Millipore Sigma) and disrupted at 4 °C by 10 cycles of 2 min vortexing and 2 min cooldown. The equivalent of […] of lysed cells was used for the immunoprecipitation of the bait proteins using FLAG-M2 agarose beads (Millipore Sigma). The beads were incubated with the cell lysates for 120 min at 4 °C with a slow rotation, followed by three washes with the yeast lysis buffer.
Protein extracts and affinity-purified baits from yeast and human lysed cells were migrated on 10% polyacrylamide gels. The separated proteins were then transferred to nitrocellulose membranes. Validation of correct protein loading was done with ponceau staining of the membranes. Before the primary antibody incubations, membranes were blocked in 5% milk. Protein signals were detected on an Amersham Imager 600RGB (GE Healthcare) following the incubation of the membranes with the appropriate HRP-conjugated secondary antibodies and the Clarity Western ECL Substrate (Bio-Rad). The antibodies used in this study are M2-HRP (A8592, Sigma, 1/50,000), rabbit anti-FLAG (F7425, Sigma, 1/1000), PAK (SC-881, Santa Cruz, 1/200), p130cas/BCAR1 (SC-860, Santa Cruz, 1/200), actin (Cell Signaling Technology, 1/2000), anti-mouse HRP (Cell Signaling Technology, 1/10,000) and anti-rabbit HRP (Cell Signaling Technology, 1/10,000). The quantification of the WB signals was performed with the Amersham Imager 600 analysis software (GE Healthcare).

[2] = system: Abp1 PPIs; experiment: DHFR-PCA of Abp1 SH3-swapped baits (Fig. 2B-D, S2C, S2F); type: cell-based, Saccharomyces cerevisiae; settings: number of interactions of Abp1 carrying the named SH3; sheet FigS2A-B
How it was run: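 Yeast DHFR-PCA in which Abp1 baits, carrying their SH3 replaced by CRISPR–Cas9 with one of 27 yeast SH3s or human CTTN, HCLS1 or DBNL SH3s, were mated against 575 SH3-associated DHFR F[3] preys plus 40 negative controls. Four tests were run per PPI. Diploids were selected twice (48 h, 30 °C), then grown 4 days on PCA selection media.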

| Molecule | Ratio Swap/WT Flag [1] | Flag (2 bands) [1] | Interactions in Abp1 [2] |
| --- | --- | --- | --- |
| Ysc84 (protein, UniProt P32793 1-468, looked up) Protein YSC84: MGINNPIPRSLKSETKKAAKVLRSFVKPNQVFGADQVIPPYVLKRAKGLAIITVLKAGFLFSGRAGSGVIVARLKDGTWSAPSAIAMAGAGAGGMVGVELTDFVFILNSEEAVRSFSEFGTITLGGNVSVSAGPLGRSAEAAASASTGGVSAVFAYSKSKGLFAGVSVEGSAILERREANRKFYGDNCTSKMILSGRVKVPPAADPLLRILESRAFNFTRHDHDDNASGDDFYDDGQYSDNTSHYYDDIPDSFDSTDESSTRPNTRSSRRRGMSLGSRSRYDDDYDDDGYGRGRGYGDFDSEDEDYDYGRSPNRNSSRNRGPQIDRGTKPRANTRWEDDLYDRDTEYSRPNHSGRDYDNTRGNRRGYGRERGYSLGHGPTHPSNMSNVDDLSHKMSKTGLGNESTATNSATPTAVALYNFAGEQPGDLAFKKGDVITILKKSDSQNDWWTGRTNGKEGIFPANYVRVS | 0.8764 | 203262 | 108 |
| Abp1-1 (protein, UniProt P15891 2-592, looked up) Actin-binding protein: ALEPIDYTTHSREIDAEYLKIVRGSDPDTTWLIISPNAKKEYEPESTGSSFHDFLQLFDETKVQYGLARVSPPGSDVEKIIIIGWCPDSAPLKTRASFAANFAAVANNLFKGYHVQVTARDEDDLDENELLMKISNAAGARYSIQTSSKQQGKASTPPVKKSFTPSKSPAPVSKKEPVKTPSPAPAAKISSRVNDNNDDDDWNEPELKERDFDQAPLKPNQSSYKPIGKIDLQKVIAEEKAKEDPRLVQKPTAAGSKIDPSSDIANLKNESKLKRDSEFNSFLGTTKPPSMTESSLKNDDDKVIKGFRNEKSPAQLWAERKAKQNSGNAETKAEAPKPEVPEDEPEGEPDVKDLKSKFEGLAASEKEEEEMENKFAPPPKKSEPTIISPKPFSKPQEPVKAEEAEQPKTDYKKIGNPLPGMHIEADNEEEPEENDDDWDDDEDEAAQPPLPSRNVASGAPVQKEEPEQEEIAPSLPSRNSIPAPKQEEAPEQAPEEEIEEEAEEAAPQLPSRSSAAPPPPPRRATPEKKPKENPWATAEYDYDAAEDNELTFVENDKIINIEFVDDDWWLGELEKDGSKGLFPSNYVSLGN | 1 | 96800 | 86 |
| Sdc25 (protein, UniProt P0CF34 1-1048, looked up) Putative truncated guanine …: MPITSSPDLFYLNDCDVVYWYDLTRLVCHYVNLTERDLLANEREKFLTSLDLLTAQITYVYMLFRNLRLVEDSFKKTLKKLIYTLSRFSINANIWFHSTLFEEREAIASQKDPERRSPLLQSILGTFQKFHFLLRLLHFLSNPNELTILPQLTPRFFKDSFNTISWNNPFLRKRLNQHMSHDLPRQMIKAVAGASGIVAENIDEIPASKQGTSCSSETSHHSPSAPFQRRRRGTIFSNVSGSSDESDTIWSKRKKPYPLNEETLSLVRARKKQLDGKLKQMIKSANEYLSNTANFSKMLNFEMNFKTYEEVSGTIPIIDILENLDLTIFLNLRELGDENRVFDEDVAIDDEDEEFLKHSLSSLSYILSDYFNMKQYFHDVVVKFIIVAQHLTLEDPFVFSPMQNDLPTGYYEPMKPSSLNLDNAKDKKNGSQNTDIQEEEDEYEPDPDSLILFHNLINQDSDFNDLKFFNLAHVFKKSCDDYFDVLKLAIEFVNQLILERENLLNYAARMMKNNITELLLRGEEGYGSYDGGETAEKSDTNAVYADSDTKDNDEWRDSQVKLPRYLQREYDSELIWGSNNRIKGGSKHALISYLTDNEKKDLFFDITFLITFRSIFTTTEFLSYLISQYNLDPPEDLCFEEYNEWVTKKLIPVKCRVVEIMTTFFKQYWFLGYDEPDLATLNLDYFAQVAIKENITGSVELLKEVNQKFKHGNIQEATAPMKTLDQQICQDHYSGTLYSTTESILAVDPVLFATQLTILEHEIYCEITIFDCLQKIWKNKYTKSYGASPGLNEFISFANKLTNFISYSVVKEADKSKRAKLLSHFIFIAEYCRKFNNFSSMTAIISALYSSPIYRLEKTWQAVIPQTRDLLQSLNKLMDPKKNFINYRNELKSLHSAPCVPFFGVYLSDLTFTDSGNPDYLVLEHGLKGVHDEKKYINFNKRSRLVDILQEIIYFKKTHYDFTKDRTVIECISNSLENIPHIEKQYQLSLIIEPKPRKKVVPNSNSNNKSQEKSRDDQTDEGKTSTKKDRFPKFQLHKTKKKAPKVSK | 0.3589 | 83248 | 10 |
| Sho1 (protein, UniProt P40073 1-367, looked up) High osmolarity signaling …: MSISSKIRPTPRKPSRMATDHSFKMKKFYADPFAISSISLAIVSWVIAIGGSISSASTNESFPRFTWWGIVYQFLIICSLMLFYCFDLVDHYRIFITTSIAVAFVYNTNSATNLVYADGPKKAAASAGVILLSIINLIWILYYGGDNASPTNRWIDSFSIKGIRPSPLENSLHRARRRGNRNTTPYQNNVYNDAIRDSGYATQFDGYPQQQPSHTNYVSSTALAGFENTQPNTSEAVNLHLNTLQQRINSASNAKETNDNSNNQTNTNIGNTFDTDFSNGNTETTMGDTLGLYSDIGDDNFIYKAKALYPYDADDDDAYEISFEQNEILQVSDIEGRWWKARRANGETGIIPSNYVQLIDGPEEMHR | 0.6541 | 151709 | 81 |
| Boi1 (protein, UniProt P38041 1-980, looked up) BEM1-interacting protein 1: MSLEGNTLGKGAKSFPLYIAVNQYSKRMEDELNMKPGDKIKVITDDGEYNDGWYYGRNLRTKEEGLYPAVFTKRIAIEKPENLHKSPTQESGNSGVKYGNLNDSASNIGKVSSHQQENRYTSLKSTMSDIDKALEELRSGSVEQEVSKSPTRVPEVSTPQLQDEQTLIQEKTRNEENTTHDSLFSSTADLNLSSESLKNISKSNISTKSLEPSSESVRQLDLKMAKSWSPEEVTDYFSLVGFDQSTCNKFKEHQVSGKILLELELEHLKELEINSFGIRFQIFKEIRNIKSAIDSSSNKLDADYSTFAFENQAAQLMPAATVNRDEIQQQISSKCNKLSSESSDRKSSSVTTELQRPSSVVVNPNFKLHDPAEQILDMTEVPNLFADKDIFESPGRAPKPPSYPSPVQPPQSPSFNNRYTNNNARFPPQTTYPPKNKNPTVYSNGLIPNSSTSSDNSTGKFKFPAMNGHDSNSRKTTLTSATIPSINTVNTDESLPAISNISSNATSHHPNRNSVVYNNHKRTESGSSFVDLFNRISMLSPVKSSFDEEETKQPSKASRAVFDSARRKSSYGHSRDASLSEMKKHRRNSSILSFFSSKSQSNPTSPTKQTFTIDPAKMTSHSRSQSNSYSHARSQSYSHSRKHSLVTSPLKTSLSPINSKSNIALAHSETPTSSNNKEAVSQPSEGKHKHKHKHKSKHKHKNSSSKDGSSEEKSKKKLFSSTKESFVGSKEFKRSPSELTQKSTKSILPRSNAKKQQTSAFTEGIRSITAKESMQTADCSGWMSKKGTGAMGTWKQRFFTLHGTRLSYFTNTNDEKERGLIDITAHRVLPASDDDRLISLYAASLGKGKYCFKLVPPQPGSKKGLTFTEPRVHYFAVENKSEMKAWLSAIIKATIDIDTSVPVISSYATPTIPLSKAQTLLEEARLQTQLRDAEEEEGRDQFGWDDTQNKRNSNYPIEQDQFETSDYLESSAFEYPGGRL | 0.615 | 59532 | 70 |
| Pex13 (protein, UniProt P80667 1-386, looked up) Peroxisomal membrane protein …: MSSTAVPRPKPWETSASLEEPQRNAQSLSAMMTSNQQDSRPTEESNNSNSASESAPEVLPRPAALNSSGTYGESNTIPGIYGNSNYGIPYDNNPYSMNSIYGNSIGRYGYGGSYYGNNYGSFYGGGYGAGAGYGMNNGSGLGESTKATFQLIESLIGAVTGFAQMLESTYMATHNSFFTMISVAEQFGNLKEMLGSFFGIFAIMKFLKKILYRATKGRLGIPPKNFAESEGSKNKLIEDFQKFNDSGTINSNEKATRRKISWKPLLFFLMAVFGFPYLLNKFITKLQTSGTIRASQGNGSEPIDPSKLEFARALYDFVPENPEMEVALKKGDLMAILSKKDPLGRDSDWWKVRTKNGNIGYIPYNYIEIIKRRKKIEHVDDETRTH | 0.9802 | 104696 | 91 |
| Pin3 (protein, UniProt Q06449 2-215, looked up) [PSI+] inducibility protein 3: SASLINRSLTNIRTELDFLKGSNVISNDVYDQINKSLPAKWDPANAPRNASPASLEYVEALYQFDPQQDGDLGLKPGDKVQLLEKLSPEWYKGSCNGRTGIFPANYVKPAFSGSNGPSNLPPPPQYKAQELQQIPTQNSAASSYQQQPFPPPSTNYYQQPQQQPQQAPPPQQQQQQQQHQSSHSHLKSFGSKLGNAAIFGAGASIGSDIVNNIF | 0.2499 | 57952 | 99 |
